Measurements: the supplement of paper PMC9170038

The sequences below were run on MS2 coat protein (assay: apparent KD of MS2 coat protein, switch OFF state (with FMN for OFF switches, without FMN for ON switches); designed switch direction (-1 OFF switch, 1 ON switch): 1; higher = weaker reporter binding). Conditions: FMN input: 0 or 200 uM; Eterna round: R93 (includes R88 designs).
How it was run: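 The designed RNA switches were transcribed on-chip from Illumina sequencing clusters. In 100 mM Tris-HCl pH 7.5, 80 mM KCl and 4 mM MgCl2, without or with constant ligand, they were titrated with SNAP-549-labelled MS2 coat protein from 0.7 or 1.5 nM to 3 µM in twofold steps. Apparent KD is the per-design median of normalised cluster binding-curve fits.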
With “UACACGCGGGCGCAGGAUAUGUCGCUGGUGACAUGAGGAUCACCCAUGUAUACCAUUGCGGUUGAGCAGAAGGGUGAGAAGCGUG [Raanlaza]” the “apparent KD of MS2 coat protein” value was 56.3 nM. For “UUGCAGUACGGGUAGGAUAUGUAGGGUGGUACAUGAGGAUCACCCAUGUGUCCACCCUUCGACCGGCAGAAGGGCCUGUCACUGC [Lerieseser]”, the “apparent KD of MS2 coat protein” value was 17.3 nM. For “UGGAGACAUGAGGAUCACCCAUGUGAGAAGAGGCGAGGAUAUCGAAAGAAAGAAGAGAAACGAGAAGGCGCGAGGG [salish99-SS1-043]”, the “apparent KD of MS2 coat protein” value was 52.1 nM. In the case of “AAAUAACAUGAGGAUCACCCAUGUCAAAUAAAUCGAGGAUAUGGGCCCGGGUUCCGGGAGCCAGAAGGCGAAAAGA [Teledimaqu]”, the “apparent KD of MS2 coat protein” value is reported as 41.6 nM. With “CUAGUUGCAUACUAGGAUAUACACUGGGUGACAUGAGGAUCACCCAUGUAAAAGCACAUUCGGUAGUAGAAGGAGUGUGCAGGUC [Ceedesbi]” the “apparent KD of MS2 coat protein” value was 68.8 nM. “AAAAAACAUGAGGAUCACCCAUGUCUUCGGACGUGAGGAUAUGUACAGACUUCGGUCUGUACAGAAGGCACAAAAA [SS1 - 1033]” was tested, and the “apparent KD of MS2 coat protein” value was 397 nM. With “AAACCACAUGAGGAUCACCCAUGUAAAAUAAUGGGAGGAUAUACUAGAAGAAACAAAAUAGUAGAAGGCUCAAAAA [75%, Ex sub1, 34]” the “apparent KD of MS2 coat protein” value was 97.3 nM. “AAAAUACAUGAGGAUCACCCAUGUGAGAAAAACGCAGGAUAUGCCCGAAAAAAAAGGCGGGCAGAAGGGUGAAAAA [SameState1-II]” was tested, and the “apparent KD of MS2 coat protein” value was 90.4 nM. In the case of “AAAAUACAUGAGGAUCACCCAUGUGAAAAUAUGGGAGGAUAUACCGAAAAAAAAAAAACGGUAGAAGGCCCAAAAA [SS! 1 MT 7]”, the “apparent KD of MS2 coat protein” value is reported as 43.5 nM. With “AGAAAACAUGAGGAUCACCCAUGUGAUAAUAUGGGAGGAUAUACGGAGACGAAAGUCGACGUAGAAGGCCUAAAGA [Garnet 49]” the “apparent KD of MS2 coat protein” value was 82.8 nM. For “GAAAAACAUGAGGAUCACCCAUGUAGAAAUAUGGGAGGAUAUACAAAGUCGAAAGUCAAAGUAGAAGGCCUAAAAG [Garnet 26]”, the “apparent KD of MS2 coat protein” value was 170 nM. With “AAAAAACAUGAGGAUCACCCAUGUCGAAAGACAUGAGGAUAUGUACAGACUUCGGUCUGUACAGAAGGCAUGUCAA [SS1 - 1020]” the “apparent KD of MS2 coat protein” value was 107 nM. With “GGCAAACAUGAGGAUCACCCAUGUCAGUGCUAUCAAGGAUAUGGGAUGACGGAAGGUCGGCCAGAAGGUGAGAAAG [Quededma]” the “apparent KD of MS2 coat protein” value was 406 nM. With “GUGUAUAGCCUCGAGGAUAUCCUGUAAUGCACAUGAGGAUCACCCAUGUAUGAGCGAGUUUUUUGGGAGAAGGCGAGUUAUCGGU [JR_SS002_Sub1709]” the “apparent KD of MS2 coat protein” value was 24.2 nM. With “CGAAAGGAGAGAGAGGAUAUCCAAAGGAAAACAUGAGGAUCACCCAUGUAGAAGGUAGGAGAUUGGGAGAAGGCUCAAGAGAGGC [salish99-ss2-150]” the “apparent KD of MS2 coat protein” value was 46.7 nM. “UAAAAAACGUAUGAGGAUAUCCAAAAUAAAACAUGAGGAUCACCCAUGUGAAUAAAAUAACAAUGGGAGAAGGCAUACGUAUCAU [Mat - Same state - Malcolm Mod - D138]” was tested, and the “apparent KD of MS2 coat protein” value was 20.8 nM. For “AGGAAACAUGAGGAUCACCCAUGUAAAAAAGUGGGAGGAUAUGCGAAAAGAAAAAGAAAAGCAGAAGGCCUAAGAA [62%, Something completely different, 6]”, the “apparent KD of MS2 coat protein” value was 42.7 nM. “UGGAGACAUGAGGAUCACCCAUGUGAGAAGAGGCGAGGAUAUCGAAAGAAAGAAGAGAAACGAGAAGGCGCGAGUA [salish99-SS1-038]” was tested, and the “apparent KD of MS2 coat protein” value was 39.3 nM. “AGAAAUAAAGCAGAGGAUAUCCAAAAGAAAACAUGAGGAUCACCCAUGUAAAAGAAAAUAAAAUGGGAGAAGGCUGCAAAUAAAG” was tested, and the “apparent KD of MS2 coat protein” value was 23.9 nM. With “UUUAGCUGCGGGCAGGAUAUGUAUUAAAAUACAUGAGGAUCACCCAUGUGCAGGUGUAACACCUGACAGAAGGGCCAAUCGCGGC [Bequre]” the “apparent KD of MS2 coat protein” value was 193 nM. For “AAGAAUGUUUACGAGGAUAUGUUCCGCAGAACAUGAGGAUCACCCAUGUGAACAAGAAAGGCGACGCAGAAGGCGUGAGCAAAGA [Laatreve]”, the “apparent KD of MS2 coat protein” value was 324 nM. In the case of “GAGUACAUAGUACAGGAUAUAUGAAUAGUUACAUGAGGAUCACCCAUGUGCAUUUAUAUGCGCACAUAGAAGGGUGGUAGGUAUC [Mat - Same state - Malcolm Mod - D127]”, the “apparent KD of MS2 coat protein” value is reported as 29.4 nM. For “AAAAAACAUGAGGAUCACCCAUGUGAAAAUAUGGGAGGAUAUACAAAGACGAAAGUCAAAGUAGAAGGCCUAAAAA [Mat - Same State 1 - Eli mod - D86]”, the “apparent KD of MS2 coat protein” value was 132 nM. “GGAAGACAUGAGGAUCACCCAUGUGGGAUUAUGGGAGGAUAUACAAAGACGAGAGUCAGAGUAGAAGGCCUAGGAA [salish99-ss1-120(!)]” was tested, and the “apparent KD of MS2 coat protein” value was 79.1 nM. For “AGAAAACAUGAGGAUCACCCAUGUAGAAACAUGGGAGGAUAUACAAAGACGAAAGUCAAAGUAGAAGGCCUAAAGA [Mat - Same State 1 - Mod - D161]”, the “apparent KD of MS2 coat protein” value was 152 nM. For “AAUAUACAUGAGGAUCACCCAUGUUUUGGUGUAUGAGGAUAUAAAAAAAAUUAAAUAAAAUUAGAAGGCAUAAAUA [JR_SS001_Sub001]”, the “apparent KD of MS2 coat protein” value was 48.7 nM. With “UAACAACAUGAGGAUCACCCAUGUCAAACAGAUCGAGGAUAUGGGCAGGGUUUUCCCUAACUAGAAGGCGAAGACA [Leinxeerri]” the “apparent KD of MS2 coat protein” value was 181 nM. For “AAAACACAUGAGGAUCACCCAUGUAAAAACAUGGGAGGAUAUGCAUGAAAAACAUGCUAUGCAGAAGGCUCAUGUG [SS1 - 2]”, the “apparent KD of MS2 coat protein” value was 99.1 nM. “GGGAGACAUGAGGAUCACCCAUGUGAGAAGAGGCGAGGAUAUCGAAAGAAAGAAGAGAAACGAGAAGGCGCGAGUC [salish99-SS1-062]” was tested, and the “apparent KD of MS2 coat protein” value was 63.4 nM. With “GAAAAACAUGAGGAUCACCCAUGUAGAAAUAUGGGAGGAUAUACUAAGACGAAAGUCGAUGUAGAAGGCCUAAAAG [Same State 1.4g (Mat - Mod of Eli - )]” the “apparent KD of MS2 coat protein” value was 42.8 nM. For “AGGAGACAUGAGGAUCACCCAUGUGCGAGGUGAAGAGGAUAUAGAAGAAGAAGAAAGAAACUAGAAGGCUUAAAAA [JR_SameState1_Sub1]”, the “apparent KD of MS2 coat protein” value was 125 nM. For “AAAGACGUGGCGUAGGAUAUACUAAUAUUCACAUGAGGAUCACCCAUGUUCAUAUAUAUGAACGAGUAGAAGGACGACGAAAAAA [SameState2 Malc#1]”, the “apparent KD of MS2 coat protein” value was 120 nM. With “AGGAGACAUGAGGAUCACCCAUGUGAGAAGAGGCGAGGAUAUCGAAAGAAAGAAGAGAAACGAGAAGGCGCGAGUC [salish99-SS1-030]” the “apparent KD of MS2 coat protein” value was 37 nM.
